Data from patent publication US20090324700A1, “METHODS AND COMPOSITIONS FOR THE INHIBITION OF CATHEPSINS” (priority 2003, published 2009).

Key:
RelA^−/− MEFs [1] = experiment: Mitochondrial membrane potential (JC-1), RelA^−/− MEFs; assay type: cell-based, mouse; conditions: TNF-α 0.2 ng/ml, CHX 0.1 μg/ml; FIG. 5C
Experimental: (§1) Death effector assays. Death effector pathways were induced in […] MEFs by treatment TNF-α (0.2 ng/ml) and CHX (0.1 μg/ml). Assays for executioner proteases (caspases and cathepsin B) were performed on crude cytoplasmic extracts (Stegh et al., 2000). Briefly, MEFs (10^6) were lysed in 10 mM Tris-Cl, pH 7.5, 100 mM NaCl, 1 mM EDTA, 0.01% Triton X-100 (50 μl) for 30 min on ice then centrifuged at 15,000 g for 30 min at 4° C. and the supernatant recovered. Protein concentration was determined by Lowry assay (DC-protein assay kit, Biorad). Western immunoblots were performed on crude cytosolic extracts (50 μg per lane) using standard protocols and probed with the following antibodies: goat anti-mouse Bid antiserum (1 μg/ml; R&D systems), rabbit anti-human caspase 9 antiserum (2 μg/ml; Cell Signaling Technology), rabbit anti-human caspase 3 antiserum (2 μg/ml; Cell Signaling Technology), mouse anti-human caspase 8 monoclonal antibody clone 12F5 (1 μg/ml; Axxora). […]
(§2) Mitochondrial membrane potential and ROS production were measured using the fluorescent dyes JC-1 (3 μg/ml) and dihydroethidium (HE) (5 μM)(Molecular Probes) respectively, and flow cytometry according to the manufacturer's instructions.

cathepsin B = biological target: T1, cathepsin B (Mus musculus, UniProt P10605); experiment: Cathepsin B activity in crude cytoplasmic extracts, RelA^−/− MEFs; assay type: cell-based; conditions: TNF-α 0.2 ng/ml, CHX 0.1 μg/ml; FIG. 1C, 7A
T1 construct: endogenous in cells; host or cells: RelA-/- or RelA+/+ MEFs (retrovirally transduced with GFP, RelA, Spi2A or antisense Spi2A)
Experimental: Survival Assays. Although RelA^−/− MEFs are markedly more sensitive to TNF-α compared to RelA^+/+ MEFs, low levels of CHX (0.1 μg/ml) were used in the survival assays. This was to suppress any protective activity of constitutively active non-RelA NF-κB molecules that are present in RelA^−/− MEFs (FIG. 4). Thus, RelA^−/− MEFs were treated with CHX and TNF-α (R&D) and the number of live GFP-positive adherent cells was counted by flow cytometry after 16 h, if not indicated otherwise. Live cells were defined as those that excluded propidium iodide (PI-negative) and had the appropriate size, as defined by forward and side scatter characteristics (Coligan et al., 1995). For RelA^+/+ MEFs, TNF-α-cytotoxicity was determined after 16 h with CHX (10 μg/ml), if not indicated otherwise. Cathepsin B activity was inhibited by a 1 h pre-treatment of MEFs with CA-074 Me (30 μM) (Peptide Institute). […] RelA^−/− MEFs were treated with (10-50 μM) sphingosine (Calbiochem) and the number of live GFP-positive adherent cells was counted by flow cytometry after 2 h.
Death effector assays. Death effector pathways were induced in […] MEFs by treatment TNF-α (0.2 ng/ml) and CHX (0.1 μg/ml). […] Protein concentration was determined by Lowry assay (DC-protein assay kit, Biorad). […]
Colorimetric assays for capases were performed in reaction buffer (50 mM HEPES, pH 7.4, 100 mM NaCl, 10 mM DTT, 1 mM EDTA, 10% glycerol, 0.1% CHAPS) at 37° C. on crude cytoplasmic extracts using p-Nitoaniline (pNA)-labeled substrates (Calbiochem) specific for caspases 3 and 7 (Ac-DEVD-pNA), caspase 8 (Ac-IETD-pNA), caspase 9 (Ac-LEHD-pNA), each at 0.2 mM. Specific activity was determined by subtracting the apparent activity detected after 1 h pre-incubation of extract with the pan-caspase inhibitor Z-VAD.fmk at 50 μM (ICN Biomedicals Inc), then normalizing for the amount of protein. […] Specific activity was determined by subtracting the apparent activity detected after 30 min pre-incubation of extract at 37° C. with the cathespin B inhibitor CA-074 Me at 30 μM (Peptide Institute) then normalizing for the amount of protein.

RelA^−/− MEFs [2] = experiment: ROS production (dihydroethidium), RelA^−/− MEFs; assay type: cell-based, mouse; conditions: TNF-α 0.2 ng/ml, CHX 0.1 μg/ml; FIG. 5D
Experimental: as §1, §2

NIH3T3 cells = experiment: Survival of NIH3T3 cells incubated with Naphazarin (ROS); assay type: cell-based; conditions: 16 hours; three clones vs GFP controls; FIG. 12B
Experimental: FIGS. 12A-B: Spi2A inhibits the lysosomal pathway of death in the absence of caspase activity. FIG. 12A: Cathepsin B activity in crude cytoplasmic extracts from cloned GFP or Spi2A-A NIH3T3 cells before (time=00 h) or after (time=8 h) treatment with TNF-α+Z-VAD.fmk (50 μM). FIG. 12B: Spi2A protects NIH3T3 cells from death due to reactive oxygen species. NIH3T3 fibroblasts from independent clones harboring control retrovirus (GFP clones #, 18, 12 and 2) or one expressing Spi2A (Spi2A clones# 6, 4 and 2) were incubated with Naphazarin—a known initiator of Reactive Oxygen Species (ROS). After 16 hours, the percentage of live cells was determined by flow cytometry as described in Liu et al. (2003).
Spi2A protects NIH3T3 cells from death due to reactive oxygen species. NIH3T3 fibroblasts from independent clones harboring control retrovirus (GFP clones #, 18, 12 and 2) or one expressing Spi2A (Spi2A clones# 6, 4 and 2) were incubated with Naphazarin—a known initiator of Reactive Oxygen Species (ROS). After 16 hours, the percentage of live cells was determined by flow cytometry as described in Liu et al., 2003.

T1 sequence (P10605 80-333): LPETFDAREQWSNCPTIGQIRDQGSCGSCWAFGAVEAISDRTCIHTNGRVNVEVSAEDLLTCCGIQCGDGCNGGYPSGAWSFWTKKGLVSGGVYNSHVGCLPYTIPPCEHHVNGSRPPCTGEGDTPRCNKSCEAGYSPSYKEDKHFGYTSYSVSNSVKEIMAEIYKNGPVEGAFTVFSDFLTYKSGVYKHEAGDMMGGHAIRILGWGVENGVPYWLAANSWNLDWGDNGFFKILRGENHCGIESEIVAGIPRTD

B1: Spi2A: murine Spi2A polypeptide, SEQ ID NO:2; purified as C-terminal 3×FLAG protein or expressed from MIGR1 retrovirus in cells and bone-marrow chimeras (protein, listed as Mus musculus)
chain: MAGVSPAVFGCPDVTLGRNTAVREVQENVTSVDSLTLVSSNTDFAFSLYRKLVLKNPDENVVFSPFSICTALALLSLGAKSNTLKEILEGLKFNLTETPEPDIHQGFRYLLDLLSQPGNQVQISTGSALFIEKHLQILAEFKEKARALYQAEAFTADFQQPLKATKLINDYVSNHTQGKIKELISGLKESTLMVLVNYIYFKGKWKNPFDPNDTFKSEFYLDEKRSVIVSMMKTGYLTTPYFRDEELSCTVVELKYTGNASAMFILPDQGRMQQVEASLQPETLRKWKNSLKPRMIHELRLPKFSISTDYSLEHILPELGIREVFSTHADLSAITGTKDLRVSQVVHKAVLDVAEKGTEAAAATGMAGVGCCAVFDFLEIFFNRPFLMIISDTKAHIALFMAKVTNPERSTNFPNGEGASSQRLESKRLCFGDPLCLIGQ
modifications: C-terminal 3xFLAG tag
notes: purified as C-terminal 3×FLAG protein or expressed from MIGR1 retrovirus in cells and bone-marrow chimeras
B1 was tested, and the mitochondrial depolarization (RelA^−/− MEFs [1]) was “virtually abrogated”, the “Cytosolic cathepsin B activity after TNF-α, retrovirally transduced cells” value (cathepsin B) was “inhibited the induction” and the “production of reactive oxygen species (ROS)” value (RelA^−/− MEFs [2]) was “suppressed”. The “Survival (percentage of live cells) with Naphazarin” value (NIH3T3 cells) was “significantly increased survival”.
